According to US20180280504A1, “GLYCAN-INTERACTING COMPOUNDS AND METHODS OF USE” (SIAMAB THERAPEUTICS, INC., priority 2014, published 2018):

Columns and labels:
[1] = test system: STn on bovine submaxillary mucin (BSM); experiment: Anti-STn BSM ELISA, non-treated and periodate-treated wells; format: binding; conditions: for hybridoma screening: specificity for STn: BSM ELISA without and after periodate treatment
Procedure: Anti-STn serum titer is determined using a murine anti-STn bovine submaxillary mucin (BSM) ELISA together with serum profiles observed by glycan microarray. 96-well plates are coated with 1 μg/well of BSM and incubated overnight at 4° C. O-acetylation of BSM antigen is removed by treating wells with 0.1 M sodium hydroxide. Specific binding to STn is determined by treatment of wells with sodium periodate. Periodate treatment destroys the […] side chain of sialic acid; therefore antibodies raised against STn should not bind to periodate-treated wells. Wells are blocked with PBS 1% ovalbumin (OVA). Serum samples to be assayed are serially diluted in PBS 1% OVA. A commercially available mouse anti-STn monoclonal antibody, 3F1 (SBH Sciences, Natick, Mass.) is used as a positive control. This antibody is also serially diluted in PBS with 1% OVA. A pool of serum from naïve wild type mice is used for the preparation of negative control samples. Detection of anti-STn antibodies present in serum is determined using an HRP-conjugated polyclonal goat anti-mouse IgG antibody (Jackson Immunoresearch, West Grove, Pa.). The reaction is stopped by addition of sulfuric acid (1.6 M). Optical densities are measured at 490 nm using a Spectramax microplate reader (Molecular Devices, Sunnyvale, Calif.). The serum titer is obtained by comparison of OD values with a cutoff value calculated as two standard deviations above the mean of optical density values of the negative control. Sample tests are considered positive if the mean optical density value is greater than the cutoff value.
Binding affinities of 18D2 and 18C7 to STn were compared to commercially available anti-STn antibodies using the BSM ELISA assay described in Example 2. Commercial anti-STn antibodies used for comparison included 3F1 (SBH Sciences, Natick, Mass.,) TAG-72 clone B72.3 (Thermo Fisher Scientific, Waltham, Mass.,) TAG-72 clone CC49 (Santa Cruz Biotechnology, Santa Cruz, Calif.) as well as a negative control antibody against c-myc (Thermo Fisher Scientific, Waltham, Mass.). Each antibody was titrated using a 7-point, 1:5 serial dilution starting from 100 nM. Titrated antibodies were added to BSM ELISA plates containing wells that were non-treated or treated with sodium periodate. Antibody binding was determined using HRP-conjugated polyclonal goat anti-mouse IgG antibody (Jackson Immunoresearch Laboratories, West Grove, Pa.). The reaction was developed using an HRP substrate and stopped with 1.6 M sulfuric acid. Optical densities were measured at 490 nm using a Spectramax microplate reader. […] The half maximal effective concentration (EC50) for each antibody was calculated using a non-linear regression analysis carried out on periodate subtracted data.

MDA-MD-231 STn cells = experiment: Antibody internalization by fluorescence microscopy cell counts, STn+ cells; format: cell-based, human; conditions: for Net cell counts of cells showing positive internalization: 10 μg/ml antibody; for level of internalization (comparison of antibodies): microscopy
Procedure: 6-well culture dishes were prepared with collagen-coated coverslips in the center of 4 wells of each dish. Wells were seeded with either 10^5 cells/well of MDA-MD-231 cells or with 10^6 cells/well of MDA-MD-231 STn cells (expressing STn) and cultured for 24 hours.
10 μg/ml antibody solutions were prepared in cell culture media. A separate solution was prepared for each of LA22 antibody (EMD Millipore, Burlington, Mass.) as a positive control for cell surface binding, S3F antibody (internal reagent) as a positive control for STn binding, 8C11, 2D4, 7G9, 10A5 and GB26.16 (QED Bioscience, San Diego, Calif.) as a negative control. Media were removed from wells and 100 μl of each antibody solution was added to separate coverslips. Coverslips were covered with parafilm and incubated for 30 minutes at 4° C. to allow antibody binding. Antibody solutions were removed by washing and fresh media was added to each well. Cells were incubated at 37° C. for 15, 30, 60 or 240 min to allow for antibody internalization.
After incubation, cells were prepared for microscopy. Cells were washed with PBS and fixed with paraformaldehyde fixation buffer (PFA) containing 3% paraformaldehyde and 2% sucrose in PBS for 15 minutes at room temperature. Cells were rinsed again in PBS and treated with blocking buffer made up of PBS with 1% bovine serum albumin (BSA) or with permeabilization buffer made up of blocking buffer with 0.1% TX-100. Cells were incubated in for 30 min at room temperature, rinsed in PBS and treated with secondary antibody (ALEXA FLUOR® 488-labeled goat-anti-mouse IgG) for 2 hours at room temperature. Cells were rinsed again in PBS and treated with DAPI nuclear stain for 5 min at room temperature in the dark. Cells were rinsed again in PBS and mounted for fluorescence microscopy.

OV-90 cells = experiment: Cell viability assay with secondary antibody-drug conjugate (2° ADC), OV-90; format: cell-based; conditions: with 2° ADC Fab αMFc-CL-MMAF
Procedure: Cell viability assays are performed to screen anti-STn antibodies of the present invention in the presence and absence of secondary antibody-drug conjugates (2° ADCs). The purpose of the screen is to identify the ability of each anti-STn antibody to inhibit cell growth. Antibodies with potent cell growth inhibition are used to design direct antibody-drug conjugates (ADCs). Using such secondary antibody-drug conjugates (2° ADCs) in cell-based cytotoxic assays can quickly pre-screen many ADC candidates against tumor cells. Based on the assay, a naked antibody candidate is directly added to cells in the presence of a 2° ADC. Internalization of the mAb/2° ADC complex into cells that express a high density of the targeted antigen can achieve a dose-dependent drug release within the cells, causing a cytotoxic effect to kill the cells (e.g., tumor cells), while cells expressing a low density of the targeted antigen are not affected (e.g., normal cells).
To perform cell viability assays, cell lines described in the present application (MDA-MB-231 parental, MDA-MB-231-STn+, and OV-90) are prepared and cultured for the assays. The cell culture is optimized for cell density by plating different densities of cells (e.g., 2,000, 4,000 and 7,500 per well) on a 96-well plate and observing the cell growth for 96 hours. The plating condition in which cells reach around 90% confluence at the end of the 96 hours is identified and the optimal cell number is then used in the final viability assay.
Duplicate or triplicate cell plates for each cell line are used for testing each antibody candidate.
For cell viability assays, data points are collected for each antibody candidate with duplicates for each data point. […]
Cell viabilities are measured by Cell-Titer Glo luminescence based assays.
Three anti-STn monoclonal antibodies (anti-STn antibodies S3F, 7G9 and 2D4) and an anti-EGFR monoclonal antibody LA22 were tested for internalization. […] Cell viability was then measured using CellTitreGlo Luminescent Cell Viability Assay (Promega, Madison, Wis.).

B1: 18C7: anti-STn mouse monoclonal, IgG2c κ, from mouse #4436; VH SEQ ID NO: 4, VL SEQ ID NO: 5 (antibody, V domains shown)
VH: QVTLKESGPGILQPSQTLSLTCSFSGFSLSTFGMGVGWIRQPSGKGLEWLAHIWWDDDKYYNPALKSRLTISKDTSKNQVFLKIANVDTADTATYYCARIAYYYGSERDYWGQGTTLTVSS
VL: QIVLTQSPAIMSASPGEKVTMTCSASSSISYMHWYHQKPGTSPKRWIYDTSKLASGVPARFSGSGSGTSYSLTISSMEAEDAATYYCHQRSSYTFGGGTKLEIKR
B1 was tested, and the “hybridoma screening: specificity for STn” value [1] was “specific for STn”, the “binding to non-treated wells” value ([1]; BSM ELISA, wells not treated with sodium periodate) was “bound non-treated wells” and the “binding to periodate-treated wells” value ([1]; BSM ELISA, wells treated with sodium periodate) was “did not bind to periodate-treated wells”. For the same molecule, the EC50 ([1]; non-linear regression on periodate subtracted data, 7-point 1:5 dilution from 100 nM) was 62.5 nM.

B2: 10A5: anti-STn mouse monoclonal, IgG2c κ, from mouse #4406; VH SEQ ID NO: 6, VL SEQ ID NO: 7 (antibody, V domains shown)
VH: QVQLKESGPGLVAPSQSLSITCTVSGFSLTSYGVSWVRQPPGKGLEWLGVIWGDGSTNYHSSLISRLSISKDNSKSQVFLKLNSLQTDDTATYYCARAFVYWGQGTLVTVSA
VL: QIVLTQSPAIMSASPGEKVTMTCSASSSVSYIHWYQQKSGTSPKRWIYDTSKLASGVPARFSGSGSGTSYSLTISSMEAEDAATYYCQQWSSNPPMLTFGAGTKLELK
B2 was tested, and the “hybridoma screening: specificity for STn” value [1] was “specific for STn”, the “Net cell counts of cells showing positive internalization” value (from here on “Net cell counts”) (MDA-MD-231 STn cells; 15 min at 37° C.) was 267 and the “Net cell counts” value (MDA-MD-231 STn cells; 30 min at 37° C.) was 346. For the same molecule, the “Net cell counts” value (MDA-MD-231 STn cells; 60 min at 37° C.) was 75, the “Net cell counts” value (MDA-MD-231 STn cells; 4 hr at 37° C.) was 93 and the “Net cell counts” value (MDA-MD-231 STn cells; 4 hr, no perm) was 97.

B3: 8C11: anti-STn mouse monoclonal, IgG2b κ, from mouse #4407; VH SEQ ID NO: 8, VL SEQ ID NO: 9 (antibody, V domains shown)
VH: QVQLKESGPGLVAPSQSLSITCTVSGFSLTSYGVSWVRQPPGKGLEWLGVIWGDGSTNYHSALISRLIISKDNSKSQVFLKLNSLQTDDTATYYCTKGFTYWGQGTLVTVSA
VL: QIVLTQSPAIMSASPGEKVTMTCSASSSVSYMHWYQQKSGTSPKRWIFDTSKLASGVPARFSGSGSGTSYSLTISSMEAEDAATYYCQQWSSNLLTFGAGTKLELK
In the case of B3, the “hybridoma screening: specificity for STn” value [1] is reported as “specific for STn”, the “Net cell counts” value (MDA-MD-231 STn cells; 15 min at 37° C.) is reported as 934 and the “Net cell counts” value (MDA-MD-231 STn cells; 30 min at 37° C.) is reported as 297. The “Net cell counts” value (MDA-MD-231 STn cells; 60 min at 37° C.) was 122, the “Net cell counts” value (MDA-MD-231 STn cells; 4 hr at 37° C.) was 49 and the “Net cell counts” value (MDA-MD-231 STn cells; 4 hr, no perm) was 160. The “level of internalization (comparison of antibodies)” value (MDA-MD-231 STn cells) was “greatest levels of internalization”.

B4: 2D4: anti-STn mouse monoclonal, IgG2b κ, from mouse #4407; VH SEQ ID NO: 10, VL SEQ ID NO: 11 (antibody, V domains shown)
VH: QVQLQESGPGLVAPSQSLSITCTVSGFSLISYGVNWVRQPPGKGLEWLGVIWGDGSTNYQSALISRLIISKDNSKSQVFLKLNSLQTDDTATYYCTKGFAYWGQGTLVTVSA
VL: QIVLTQSPAIMSASPGEKVTMTCSASSSVSYMHWFQQKSGTSPKRWIYDTSKLASGVPARFSGSGSGTSYSLTISSMEAEDAATYYCQQWSSNLLTFGAGTKLELK
With B4 the “hybridoma screening: specificity for STn” value [1] was “specific for STn”, the “Net cell counts” value (MDA-MD-231 STn cells; 15 min at 37° C.) was 1340 and the “Net cell counts” value (MDA-MD-231 STn cells; 30 min at 37° C.) was 413. For the same molecule, the “Net cell counts” value (MDA-MD-231 STn cells; 60 min at 37° C.) was 533, the “Net cell counts” value (MDA-MD-231 STn cells; 4 hr at 37° C.) was 325 and the “Net cell counts” value (MDA-MD-231 STn cells; 4 hr, no perm) was 536. The “level of internalization (comparison of antibodies)” value (MDA-MD-231 STn cells) was “greatest levels of internalization” and the “activity in OV-90 cells” value (OV-90 cells) was “lack of effect”.

B5: S3F: 3F1 variable domains combined with IgG2a constant domains; heavy chain SEQ ID NO: 63, light chain SEQ ID NO: 64 (antibody)
heavy: QVQLQQSDAELVKPGASVKISCKASGYTFTDHAIHWVKQKPEQGLDWIGYISPGNGDIKYNEKFKDKVTLTADKSSSTACMHLNSLTSEDSAVYFCKRSLLALDYWGQGTTLTVSSAKTTAPSVYPLAPVCGDTTGSSVTLGCLVKGYFPEPVTLTWNSGSLSSGVHTFPAVLQSDLYTLSSSVTVTSSTWPSQSITCNVAHPASSTKVDKKIEPRGPTIKPCPPCKCPAPNLLGGPSVFIFPPKIKDVLMISLSPIVTCVVVDVSEDDPDVQISWFVNNVEVHTAQTQTHREDYNSTLRVVSALPIQHQDWMSGKEFKCKVNNKDLPAPIERTISKPKGSVRAPQVYVLPPPEEEMTKKQVTLTCMVTDFMPEDIYVEWTNNGKTELNYKNTEPVLDSDGSYFMYSKLRVEKKNWVERNSYSCSVVHEGLHNHHTTKSFSRTPGK
light: DIVMTQSHKFMSTSVGDRVSITCKASQDVGTNIAWYQQKPGRSPKVLIYSASTRHTGVPDRFTGSGSGTDFTLTISNVQSEDLTDYFCQQYSSFPLTFGVGTKLELKRADAAPTVSIFPPSSEQLTSGGASVVCFLNNFYPKDINVKWKIDGSERQNGVLNSWTDQDSKDSTYSMSSTLTLTKDEYERHNSYTCEATHKTSTSPIVKSFNRNEC
In the case of B5, the “Net cell counts” value (MDA-MD-231 STn cells; 15 min at 37° C.) is reported as 426, the “Net cell counts” value (MDA-MD-231 STn cells; 30 min at 37° C.) is reported as 410 and the “Net cell counts” value (MDA-MD-231 STn cells; 60 min at 37° C.) is reported as 350. For the same molecule, the “Net cell counts” value (MDA-MD-231 STn cells; 4 hr at 37° C.) was 259, the “Net cell counts” value (MDA-MD-231 STn cells; 4 hr, no perm) was 276 and the “activity in OV-90 cells” value (OV-90 cells) was “modest activity”.
